Test results reported in the RNAGym collection of RNA variant scans (doi:10.1021/acssynbio.7b00057).

B1: Pistol ribozyme (parent)
chain: GGGUCGUUGUUCCAUAAUCGCGUGGAUAUGGCACGCAAGUUUCUACCGGGCACCGUAAAUGUCCGACUGGAGCCGUUCGGGCGGCUAUAAACAGACCUCAGGCCCGAAGCGUGGCGGCACCUGCCGCCGGUGGUAAAAAAGAUCGGAAGAGCACACGUCU

Variants of: B1
Assay: aptazyme ON/OFF ratio, guanine; higher = stronger switching; co-transcriptional cleavage with and without guanine

Variant | aptazyme ON/OFF ratio
U7A U10A C12G | 1.22
G9A U10C U11G C12G C13G | 1.12
U7G U8A G9A U10G U11A C12A C13A | 1.04
U7A G9C U10A U11C C12G | 1.21
U7A U8C G9U C13U | 1.23
U7A U10A U11G C12A C13U | 1.17
U8A G9U U10G U11C | 1.06
U7A U8C U10G U11C C12U C13A | 1.36
U7C U8G G9U U10G U11G C12G C13U | 1.25
U7C U8G U10G U11C C12A C13A | 1.19
U7G U8C G9U U10C C12G C13A | 1.31
U7C U8A U10A C12U C13A | 1.22
U8G G9A C12U C13G | 1.28
U7C U10G U11A C12U C13A | 1.19
U8A G9U U10G U11C C13G | 1.04
U7C U8G G9U U10C U11C C12U C13U | 1.09
U7C G9U U10G U11G C12U C13A | 1.07
U8A G9U U10C U11A C12A | 1.11
U7C U8C G9C U10C U11C C13U | 0.989
G9A U10G C12G C13A | 1.19
U8G G9C C12U C13U | 1.06
U7A U8C U11A C12U C13G | 1.24
U7A G9C U10G | 1.32
U7G U8A G9C U10G U11A C12U C13G | 1.06

Variant | aptazyme ON/OFF ratio
U8C U10A U11G C12U C13G | 1.22
U7C U8A G9U U10A C12A C13G | 1.16
U8C G9C U10G C12A | 1.2
U7C U8A G9C U10A U11A C12A C13U | 1.2
U8C C12U C13U | 1.28
U8G G9C U10C U11A C12U | 1.06
U7G U8A G9A U10G U11G | 1.07
U7A U8G G9A U10C U11A | 1.68
U7C U8A G9A U10A U11G C12U | 1.14
U10C U11A C12U C13G | 1.32
U7A U8G G9U U10G U11A C12G | 1.46
U10G U11G | 1.22
U7A U8G G9A U11C C12A | 1.46
U8A G9A U10A U11C C12G | 1.13
U7A U8A G9A U10G U11C C13G | 1.08
U8C G9C U10A U11A C12A C13A | 1.07
U7C U8A G9C U11G C12A C13A | 1.13
U7A U8C G9C U10A U11G C12U C13A | 1.13
U7C U11G C12U C13U | 1.2
U7G U8G G9U U10G C12U C13G | 1.21
U7G U8C G9A U10A U11A C12G | 1.22
U7C U8A G9C U11C C12U C13G | 1.06
U7C U8G G9A U10C U11A | 1.24
U7A G9A U10C C13A | 1.06

Variant | aptazyme ON/OFF ratio
U7A U8G U10C U11G C12A C13G | 1.61
U7A U10A C12U C13A | 1.18
U7C U8C G9A U10G | 1.56
G9U U10A C12G C13A | 1.07
U7C U8A G9C U11A C12A | 1.1
U7A U8G U10A U11C C12G C13G | 1.26
U7G G9U U11C C13G | 1.05
U7G U8G U11A C12G C13A | 1.11
U8C G9A U10G U11A C12G | 1.14
U7G U8C G9U U11A C12A C13A | 1.28
U7A G9C U10G U11G C12U | 1.14
U7C G9C U11C C12G | 1.04
U7G U10A U11G C12A C13A | 1.06
U7G G9U U10C U11C | 1.42
U7C U8C G9A U10A C12G | 1.39
U8A G9U U10C U11C C12A C13G | 1.05
U8G C13A | 1.3
U7C U8G G9U U10G U11A C12U C13U | 1.26
U7A U8G G9U U10G U11G C12G C13G | 1.24
U7G U8C G9A U10G U11G C12G C13G | 1.2
U11C C13G | 1.07
U7G U8A G9C U10C U11G C12U | 1.12
U7G U8C G9U U10A C12G C13G | 1.08
U7G U8C G9U U11A C12A C13G | 1.14

Variant | aptazyme ON/OFF ratio
U8G U10A C13U | 1.19
U7G U8C G9U U10A U11G | 2.29
U7C U8G G9U C12A C13U | 1.37
U7G U8A U11G C12U | 1.25
U7G U8A G9C U10G U11C C12G C13G | 1.03
U7G G9C U10A U11C C12A C13A | 1.34
U7C U8G G9U U10G C13A | 1.19
U7A U8G G9A U10G U11C C13G | 1.1
U7A U8G G9A U10C C12A C13U | 1.12
U7C G9A U11G C13U | 1.11
U7C U8G G9U U10G C13G | 1.17
U7C U8A G9U U11C | 1.07
U7C U10C U11G C12U C13A | 1.16
U7G U8C G9C C12U C13A | 1.1
U7C U8G C12A C13U | 1.27
U7G U10A U11A C13A | 1.14
U8G G9C U10A U11G C12G C13G | 1.31
U7G U8G U10C U11G | 1.56
U7G U8G G9C C12U C13A | 1.11
U7C U8G G9A U10G U11C C12U | 1.14
U7G U8C G9U U10G U11G C12G C13G | 1.23
U7A U8C G9A U10G U11A C12A C13U | 1.24
U7C G9A U10G C13U | 1.34
U7G U8A G9A C13U | 1.23

Variant | aptazyme ON/OFF ratio
U7A U8A G9U U10C U11A C12G | 1.18
U7C G9U U10G U11G C12U C13U | 1.11
U8G C12A C13A | 1.25
U7C G9A U10A U11G C12U C13A | 1.16
U7C U8A U10G U11A C12G C13A | 1.12
U7A U8C G9A U10G C12U C13U | 1.39
U7G G9U U10C U11C C12A C13A | 1.37
U8G G9C U10C C12G C13A | 1.16
U7C U8C U10G U11G C12G C13G | 1.11
U7C U8G G9U U10C C12U C13A | 1.38
U7C U8A G9U U10A U11C C12G C13A | 1.13
U8C G9U U11G C12U C13G | 1.15
U7A U8C U10G C12G C13U | 1.19
U8G G9C U10C U11G | 1.27
U7A U8G G9U U10C U11C C12A C13A | 1.21
U7C G9U C12A C13A | 1.18
U7C U8G G9A U11C C13A | 1.04
U7A U8C U10A U11C C13U | 1.02
G9C U10A C12A | 1.81
U8G G9C U10A U11G C13U | 1.05
U7C U8G U10G U11C C12G C13G | 1.18
U8G G9C U10C U11C C12U C13G | 1.04
U7A U8G G9U U10C C12U C13A | 1.34
U8G G9U U10C U11A | 1.27

Variant | aptazyme ON/OFF ratio
U8G U11A C12A C13A | 1.18
U7A U8C G9U U10A U11C C12A C13A | 1.17
U7G U8G G9U U10A U11C C13G | 1.09
U7G U10G U11A C12G C13G | 1.13
U7G U8C U10A C12A C13A | 1.24
U7C U8G G9A U10C C13G | 1.06
U7G U8A G9U U10G U11C C12A C13U | 1.11
U7A U8G G9A U10C C12G C13A | 1.19
U7C U8G G9U U10A C12U | 1.15
U7G G9A U10G U11C C12G | 1.1
G9C U11A C13G | 1.04
U7C U8G G9U U10C U11G C12G C13A | 1.15
U7C U8A G9U U10A U11A C12G C13G | 1.2
U7A U8C G9C U10G U11A C12G C13U | 1.08
U7G U8C U10A U11A C12G C13G | 1.22
U7C U8G U11A C12G | 1.1
G9U U11G C13G | 1.21
U7C U8C U10C U11C C12A C13A | 1.34
U7C U8C U10A C13U | 1.04
U8G G9C U11A C13G | 1.03
U7G U8A G9U U10G U11C C12G C13A | 1.09
G9A C12U | 1.78
U7G U8C G9A U10C C13G | 1.08
U7C G9C U10C U11A C13G | 1.05

Variant | aptazyme ON/OFF ratio
U7C G9U U10G C12G | 1.12
U7G U8C G9C U10G U11A C12A C13A | 1.1
U7G U10G U11G C13A | 1.16
U8G G9C U10C U11C C12U | 1.06
U7G G9U U10G U11A C12G C13A | 1.19
U7C U8G G9A U10C U11C C12G C13A | 1.13
U7A U8G U11C C12G C13A | 1.02
U7A G9C U10G U11A C12A C13A | 1.07
U7C U10G U11A | 1.1
G9U U10G U11C C12A | 1.69
U7A G9C C12A C13U | 1.1
G9U U10G C12U C13U | 1.26
U7C G9A U10G U11C C13U | 1.06
U7G U8A G9A U11C C12G C13A | 1.08
U7A U8C U10A C12U C13A | 1.11
G9U U10G C12U C13A | 1.35
U7G U8A G9A U10C U11A C12U C13U | 1.05
U7C U8C G9C U10G U11C C12A C13U | 1.09
U7C U8G G9C U11C C13A | 1.47
U8G G9A U10C U11C | 1.03
G9U U10A U11A C13G | 1.17
U7A G9U U10G C13A | 1.33
U7A U8A U10A C12G C13U | 1.23
